Where no end group is shown, it is not given here.
T1: DmGPCR1 (PnuFlyPep34651) (Drosophila melanogaster)
T1 chain: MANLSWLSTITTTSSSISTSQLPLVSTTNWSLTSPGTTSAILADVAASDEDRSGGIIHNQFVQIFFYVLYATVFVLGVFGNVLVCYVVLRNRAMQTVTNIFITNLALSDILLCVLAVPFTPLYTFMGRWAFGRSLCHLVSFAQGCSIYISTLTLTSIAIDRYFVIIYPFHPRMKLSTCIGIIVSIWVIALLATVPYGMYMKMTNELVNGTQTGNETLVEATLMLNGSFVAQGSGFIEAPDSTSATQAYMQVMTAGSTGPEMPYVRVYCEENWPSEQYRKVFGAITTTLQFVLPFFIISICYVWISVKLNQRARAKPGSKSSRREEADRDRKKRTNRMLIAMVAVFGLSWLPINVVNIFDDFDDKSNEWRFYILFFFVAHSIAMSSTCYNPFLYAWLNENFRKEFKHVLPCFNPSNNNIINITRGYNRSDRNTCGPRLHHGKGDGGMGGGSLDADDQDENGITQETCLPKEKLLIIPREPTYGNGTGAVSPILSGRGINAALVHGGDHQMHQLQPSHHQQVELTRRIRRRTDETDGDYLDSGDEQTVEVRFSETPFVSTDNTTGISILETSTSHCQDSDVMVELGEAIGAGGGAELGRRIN

T2: DmGPCR6a (M811490) (Drosophila melanogaster, UniProt P25931 1-464)
T2 sequence (looked up): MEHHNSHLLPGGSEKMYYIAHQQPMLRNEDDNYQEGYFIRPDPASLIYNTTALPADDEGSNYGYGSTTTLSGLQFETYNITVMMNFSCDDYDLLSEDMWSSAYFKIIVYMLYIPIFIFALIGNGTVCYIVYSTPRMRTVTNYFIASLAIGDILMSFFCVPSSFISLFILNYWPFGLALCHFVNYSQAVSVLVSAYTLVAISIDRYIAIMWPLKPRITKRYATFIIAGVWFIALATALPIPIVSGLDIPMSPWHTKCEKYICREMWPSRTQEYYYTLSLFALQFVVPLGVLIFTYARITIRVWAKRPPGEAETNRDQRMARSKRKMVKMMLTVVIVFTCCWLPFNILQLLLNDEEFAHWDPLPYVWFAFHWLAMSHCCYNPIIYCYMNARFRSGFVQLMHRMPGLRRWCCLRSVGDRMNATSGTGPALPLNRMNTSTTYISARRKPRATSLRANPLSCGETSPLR


What was measured:
DmGPCR1 (PnuFlyPep34651) = target: T1, DmGPCR1 (PnuFlyPep34651); test: cell-based or functional assay
DmGPCR6a (M811490) = target: T2, DmGPCR6a (M811490); test: cell-based or functional assay

Row | EC50, FLIPR assay (DmGPCR1 (PnuFlyPep34651)) [nM] | GTPγS binding, fold increase, 5 µM NPFF (DmGPCR6a (M811490)) [fold] | Binder
1 | 100 to 200 |  | ARGPQLRLRF-NH2 [ARGPQLRLRF-NH2]
2 |  | 4 | FLFQPQRF-NH2 [human NPFF (FLFQPQRF-NH2)]

Reference: patent US20040121956A1 (PHARMACIA AND UPJOHN, published 2004)
